Assay in all cases: IEDB peptide-MHC binding, purified MHC/competitive/radioactivity; filed as Kd, often an IC50 or EC50 that approximates it; ≥ and ≤ were set here for values at or beyond the usual limits of such assays
For experiment [1], the target named is HLA-A*29:02.
In experiment [2] the target is HLA-A*26:01.
Experiment [3] has as its target HLA-A*32:01.
In experiment [4] the target is HLA-A*30:02.
The target in experiment [5] is HLA-A*30:01.
In experiment [6] the target is HLA-A*01:01.
For experiment [7], the target named is HLA-A*24:02.
Experiment [8] has as its target HLA-A*23:01.
Experiment [9] concerns the target HLA-B*51:01.
The target in experiment [10] is HLA-B*53:01. Particulars: source organism: Dengue virus 1 Singapore/S275/1990.
The target in experiment [11] is HLA-B*35:01. The settings on record: source organism: Dengue virus 1 Singapore/S275/1990.
Where [12] appears, read: source organism: Mammarenavirus whitewaterense.
The mark [13] stands for this setting: source organism: SARS coronavirus Tor2.
Where [14] appears, read: source organism: Mammarenavirus guanaritoense.
Setting [15] is: source organism: Mammarenavirus brazilense.
Setting [16] is: source organism: Mammarenavirus machupoense.
The mark [17] stands for this setting: source organism: Lymphocytic choriomeningitis virus (strain Armstrong).
The mark [18] stands for this setting: source organism: Mammarenavirus juninense.

Usually Kd stands for the constant that tells how readily two partners part at equilibrium. Take ATGTDMPGGY: the equilibrium dissociation constant (Kd) in experiment [1] (setting [12]) is 8.85 µM; in experiment [2] (setting [12]) it was at least 69.7 µM; in experiment [3] (setting [12]), at least 69.9 µM; in experiment [4] (setting [12]) it was 0.531 µM; in experiment [5] (setting [12]), at least 63.6 µM; in experiment [6] (setting [12]) it was 0.033 µM.

For the sequence FMMSRRRLL, the dissociation constant (Kd) in experiment [1] (setting [13]) is 2.62 µM; in experiment [2] (setting [13]), at least 77.9 µM; in [7] (setting [13]), 1.41 µM; in [4] (setting [13]), 6.73 µM; in experiment [6] (setting [13]), at least 78.1 µM; in experiment [8] (setting [13]) it was 0.496 µM.

As for LYYPSARIVY, the dissociation constant (Kd) in [1] (setting [13]) is 0.0146 µM; in [2] (setting [13]), 7.36 µM; in experiment [7] (setting [13]), 2.02 µM; in experiment [4] (setting [13]), 0.0718 µM; in experiment [6] (setting [13]), at least 37.8 µM; in experiment [8] (setting [13]), 1.91 µM.

With LWPFIRINNL, the Kd in experiment [1] (setting [14]) is 1.64 µM; in experiment [7] (setting [14]) it was 0.453 µM; in experiment [8] (setting [14]) it was 0.117 µM.

As for GAEHVDTSY, the dissociation constant Kd in [1] (setting [13]) is 0.722 µM; in [2] (setting [13]), 2.45 µM; in experiment [7] (setting [13]) it was at least 77.6 µM; in [4] (setting [13]), 2.9 µM; in experiment [6] (setting [13]), 0.398 µM; in experiment [8] (setting [13]) it was at least 77.8 µM.

RVGLYGLLFY: the Kd was 0.0484 µM in experiment [1] (setting [14]); at least 69.7 µM in experiment [2] (setting [14]); 2.34 µM in [3] (setting [14]); 0.0366 µM in experiment [4] (setting [14]); 4.05 µM in [5] (setting [14]); 17.4 µM in experiment [6] (setting [14]).

On to NYPYLFEEHL, for which the results for the Kd in experiment [1] (setting [15]), in [7] (setting [15]) and in experiment [8] (setting [15]) were at least 71.4 µM, 0.979 µM and 0.824 µM, respectively.

Regarding CKSKNPLLY, the dissociation constant Kd in experiment [1] (setting [13]) was 0.163 µM; in experiment [2] (setting [13]) it was at least 81.5 µM; in [7] (setting [13]), at least 77.6 µM; in experiment [4] (setting [13]) it was 0.199 µM; in experiment [6] (setting [13]), at least 87.7 µM; in experiment [8] (setting [13]), at least 67.6 µM.

On to LSSSEPHCA, for which the dissociation constant (Kd) in experiment [1] (setting [16]) is at least 78.9 µM; in experiment [2] (setting [16]), at least 77.9 µM; in [7] (setting [16]) it was at least 77.5 µM; in experiment [4] (setting [16]), 2.35 µM; in [6] (setting [16]) it was 4.19 µM; in experiment [8] (setting [16]), at least 60.9 µM.

As for FSKSRSTLMY, the dissociation constant (Kd) in experiment [1] (setting [17]) is 0.333 µM; in experiment [2] (setting [17]) it was 0.878 µM; in experiment [3] (setting [17]) it was at least 69.9 µM; in [4] (setting [17]) it was 0.993 µM; in [5] (setting [17]), 0.377 µM; in experiment [6] (setting [17]) it was 0.0685 µM.

FKPGTSGSPI: in experiment [9] (source organism: Dengue virus 1 Brazil/97-11/1997), the Kd was 5.75 µM.

As for YAQMWSLMY, the Kd in experiment [4] (source organism: Dengue virus 3 Martinique/1243/1999) was determined as 0.0088 µM.

With VAHSSLYGRY, the Kd in experiment [1] (setting [18]) was 0.349 µM; in experiment [2] (setting [18]), 11.7 µM; in experiment [3] (setting [18]), at least 69.9 µM; in experiment [4] (setting [18]), 0.00586 µM; in experiment [5] (setting [18]) it was 8.96 µM; in [6] (setting [18]) it was 5.8 µM.

For EALSGFLQY, the dissociation constant (Kd) was 0.778 µM in [1] (setting [18]); 1.49 µM in experiment [2] (setting [18]); at least 77.8 µM in experiment [3] (setting [18]); 3.95 µM in experiment [4] (setting [18]); at least 43.1 µM in experiment [5] (setting [18]); 11.6 µM in [6] (setting [18]).

As to DSSQGSEYDY, the Kd in experiment [1] (setting [13]) was 1.35 µM; in experiment [2] (setting [13]) it was 7.27 µM; in experiment [7] (setting [13]), at least 70.3 µM; in experiment [4] (setting [13]) it was 0.151 µM; in experiment [6] (setting [13]), 0.151 µM; in experiment [8] (setting [13]), at least 70 µM.

With LPVLLGSLGC, the Kd in experiment [9] (source organism: Dengue virus 1 Singapore/S275/1990) was at least 20.1 µM; in experiment [10] it was 0.199 µM; in experiment [11], 2.03 µM.

On to DPRRCMKPVI, for which the Kd in experiment [9] (source organism: Dengue virus 2 Jamaica/1409/1983) turned out to be 9.65 µM.

Consider LYLYALIYFL, for which the equilibrium dissociation constant (Kd) in [1] (setting [13]) is 3 µM; in [2] (setting [13]), 2.46 µM; in experiment [7] (setting [13]), 0.299 µM; in experiment [4] (setting [13]) it was 6.96 µM; in experiment [6] (setting [13]) it was 4.27 µM; in experiment [8] (setting [13]), 0.022 µM.

For the origin of these results see the Immune Epitope Database (IEDB).
